Reference: IntAct's records for PubMed 20676133

B1: RING finger protein 11 (Homo sapiens), Q9Y3C5 (parent)
chain: MGNCLKSPTSDDISLLHESQSDRASFGEGTEPDQEPPPPYQEQVPVPVYHPTPSQTRLATQLTEEEQIRIAQRIGLIQHLPKGVYDPGRDGSEKKIRECVICMMDFVYGDPIRFLPCMHIYHLDCIDDWLMRSFTCPSCMEPVDAALLSSYETN

Variants of: B1
Settings: with itch_human ITCH

| Variant | effect of a mutation on the interaction |
| --- | --- |
| Y40A | disrupting interaction |

Variants of: B1
Settings: with nedd4_human NEDD4, P46934
Sequence of nedd4_human NEDD4, P46934 (P46934 whole entry): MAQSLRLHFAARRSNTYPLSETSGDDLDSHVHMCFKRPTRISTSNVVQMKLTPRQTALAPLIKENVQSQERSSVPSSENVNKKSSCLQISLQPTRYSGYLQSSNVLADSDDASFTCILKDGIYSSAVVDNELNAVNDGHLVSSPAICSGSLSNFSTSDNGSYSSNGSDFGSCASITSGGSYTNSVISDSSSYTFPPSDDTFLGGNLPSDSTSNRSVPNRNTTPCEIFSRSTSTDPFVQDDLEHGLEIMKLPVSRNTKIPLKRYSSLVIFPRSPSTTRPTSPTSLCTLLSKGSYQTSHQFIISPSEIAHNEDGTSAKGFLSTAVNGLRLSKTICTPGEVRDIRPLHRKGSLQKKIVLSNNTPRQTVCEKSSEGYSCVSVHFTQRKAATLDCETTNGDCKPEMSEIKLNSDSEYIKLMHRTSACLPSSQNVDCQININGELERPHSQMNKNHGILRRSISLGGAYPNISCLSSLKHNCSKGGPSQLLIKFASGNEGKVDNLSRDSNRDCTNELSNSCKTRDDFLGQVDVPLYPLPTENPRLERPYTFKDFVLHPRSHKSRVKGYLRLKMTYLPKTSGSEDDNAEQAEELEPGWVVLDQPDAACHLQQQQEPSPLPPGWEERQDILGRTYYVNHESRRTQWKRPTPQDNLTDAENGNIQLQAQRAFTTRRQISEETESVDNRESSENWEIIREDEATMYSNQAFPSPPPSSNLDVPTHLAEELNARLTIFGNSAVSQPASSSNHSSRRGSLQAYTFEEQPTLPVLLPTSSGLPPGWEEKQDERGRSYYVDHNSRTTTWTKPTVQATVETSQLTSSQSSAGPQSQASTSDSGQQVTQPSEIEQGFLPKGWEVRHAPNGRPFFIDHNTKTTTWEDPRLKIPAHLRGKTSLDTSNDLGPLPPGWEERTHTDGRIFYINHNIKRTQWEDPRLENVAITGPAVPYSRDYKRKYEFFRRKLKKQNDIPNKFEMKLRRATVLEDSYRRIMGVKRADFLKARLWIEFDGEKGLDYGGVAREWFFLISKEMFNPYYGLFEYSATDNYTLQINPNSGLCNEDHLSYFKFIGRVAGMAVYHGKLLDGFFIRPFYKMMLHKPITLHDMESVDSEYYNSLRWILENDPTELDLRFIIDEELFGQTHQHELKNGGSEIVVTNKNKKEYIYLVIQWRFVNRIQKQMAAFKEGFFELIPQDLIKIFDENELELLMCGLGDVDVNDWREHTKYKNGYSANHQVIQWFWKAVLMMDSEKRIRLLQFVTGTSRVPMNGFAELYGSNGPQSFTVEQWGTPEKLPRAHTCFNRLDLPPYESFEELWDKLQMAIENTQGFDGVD

| Variant | effect of a mutation on the interaction |
| --- | --- |
| Y40A | disrupting interaction |

Variants of: B1
Settings: with smuf2_human SMURF2, Q9HAU4
Sequence of smuf2_human SMURF2, Q9HAU4 (Q9HAU4 whole entry): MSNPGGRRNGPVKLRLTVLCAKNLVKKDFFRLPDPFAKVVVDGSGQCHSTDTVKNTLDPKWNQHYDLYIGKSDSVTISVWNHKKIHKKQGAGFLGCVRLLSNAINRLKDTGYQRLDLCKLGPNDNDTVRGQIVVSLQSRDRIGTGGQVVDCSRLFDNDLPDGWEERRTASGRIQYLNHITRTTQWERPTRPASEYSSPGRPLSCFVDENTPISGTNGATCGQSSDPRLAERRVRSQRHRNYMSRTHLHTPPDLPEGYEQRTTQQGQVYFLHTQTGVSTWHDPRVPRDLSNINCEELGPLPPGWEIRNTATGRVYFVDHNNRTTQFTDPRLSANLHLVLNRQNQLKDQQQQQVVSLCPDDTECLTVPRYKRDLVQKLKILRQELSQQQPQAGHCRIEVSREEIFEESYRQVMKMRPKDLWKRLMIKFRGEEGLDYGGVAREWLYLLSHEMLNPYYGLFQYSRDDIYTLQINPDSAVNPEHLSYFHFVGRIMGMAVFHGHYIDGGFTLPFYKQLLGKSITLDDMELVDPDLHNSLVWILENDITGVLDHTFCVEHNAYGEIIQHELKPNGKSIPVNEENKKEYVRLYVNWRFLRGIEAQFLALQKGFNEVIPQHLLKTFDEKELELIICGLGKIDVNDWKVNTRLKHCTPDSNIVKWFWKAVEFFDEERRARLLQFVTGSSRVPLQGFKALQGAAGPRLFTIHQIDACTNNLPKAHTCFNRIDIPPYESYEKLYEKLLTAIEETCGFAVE

| Variant | effect of a mutation on the interaction |
| --- | --- |
| Y40A | disrupting interaction |
